Reference: patent US20180009871A1 (INTARCIA THERAPEUTICS, published 2018)
Where no end group is shown, it is not given here. [ ]: non-standard residue; d: D form. Aib = CC(C)(N)C(=O)O

Experiments:
[1] = target: human glucagon receptor (GCGR) (human, UniProt P47871 26-477); experiment: cell-based or functional assay
[2] = target: human GLP-1 receptor (GLP-1R) (human, UniProt P43220 24-463); experiment: cell-based or functional assay
Chain of human GLP-1 receptor (GLP-1R) (P43220 24-463): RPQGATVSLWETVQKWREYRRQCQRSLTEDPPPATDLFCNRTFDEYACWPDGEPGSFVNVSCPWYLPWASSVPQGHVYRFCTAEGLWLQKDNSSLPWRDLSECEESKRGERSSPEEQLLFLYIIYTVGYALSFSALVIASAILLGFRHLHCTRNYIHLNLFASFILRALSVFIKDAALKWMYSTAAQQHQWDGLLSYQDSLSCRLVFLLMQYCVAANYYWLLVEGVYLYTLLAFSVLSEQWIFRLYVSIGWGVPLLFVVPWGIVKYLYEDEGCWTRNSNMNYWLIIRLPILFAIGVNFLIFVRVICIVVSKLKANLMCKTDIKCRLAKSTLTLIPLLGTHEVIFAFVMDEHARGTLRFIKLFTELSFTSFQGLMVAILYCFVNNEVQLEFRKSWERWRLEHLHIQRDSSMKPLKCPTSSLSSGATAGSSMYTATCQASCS

Binder | hGCGR pEC50 (cAMP) [1] | hGLP1 pEC50 (cAMP) [2]
YSHGTFTSDYSKYLD[Aib]KRAQEFV[Aib]WLEEEPSSGAPPPS-OH (N-terminus assumed; SMILES CC(C)C[C@H](NC(=O)[C@H](Cc1ccc(O)cc1)NC(=O)[C@H](CCCCN)NC(=O)[C@H](CO)NC(=O)[C@H](Cc1ccc(O)cc1)NC(=O)[C@H](CC(=O)O)NC(=O)[C@H](CO)NC(=O)[C@@H](NC(=O)[C@H](Cc1ccccc1)NC(=O)[C@@H](NC(=O)CNC(=O)[C@H](Cc1c[nH]cn1)NC(=O)[C@H](CO)NC(=O)[C@@H](N)Cc1ccc(O)cc1)[C@@H](C)O)[C@@H](C)O)C(=O)N[C@@H](CC(=O)O)C(=O)NC(C)(C)C(=O)N[C@@H](CCCCN)C(=O)N[C@@H](CCCNC(=N)N)C(=O)N[C@@H](C)C(=O)N[C@@H](CCC(N)=O)C(=O)N[C@@H](CCC(=O)O)C(=O)N[C@@H](Cc1ccccc1)C(=O)N[C@H](C(=O)NC(C)(C)C(=O)N[C@@H](Cc1c[nH]c2ccccc12)C(=O)N[C@@H](CC(C)C)C(=O)N[C@@H](CCC(=O)O)C(=O)N[C@@H](CCC(=O)O)C(=O)N[C@@H](CCC(=O)O)C(=O)N1CCC[C@H]1C(=O)N[C@@H](CO)C(=O)N[C@@H](CO)C(=O)NCC(=O)N[C@@H](C)C(=O)N1CCC[C@H]1C(=O)N1CCC[C@H]1C(=O)N1CCC[C@H]1C(=O)N[C@@H](CO)C(=O)O)C(C)C) [Compound A9] | 13 pEC50 | < 9 pEC50
YSHGTFTSDYSKYLD[Aib]KRAQEFV[Aib]WLEDESGAPPPS-OH (N-terminus assumed; SMILES CC(C)C[C@H](NC(=O)[C@H](Cc1ccc(O)cc1)NC(=O)[C@H](CCCCN)NC(=O)[C@H](CO)NC(=O)[C@H](Cc1ccc(O)cc1)NC(=O)[C@H](CC(=O)O)NC(=O)[C@H](CO)NC(=O)[C@@H](NC(=O)[C@H](Cc1ccccc1)NC(=O)[C@@H](NC(=O)CNC(=O)[C@H](Cc1c[nH]cn1)NC(=O)[C@H](CO)NC(=O)[C@@H](N)Cc1ccc(O)cc1)[C@@H](C)O)[C@@H](C)O)C(=O)N[C@@H](CC(=O)O)C(=O)NC(C)(C)C(=O)N[C@@H](CCCCN)C(=O)N[C@@H](CCCNC(=N)N)C(=O)N[C@@H](C)C(=O)N[C@@H](CCC(N)=O)C(=O)N[C@@H](CCC(=O)O)C(=O)N[C@@H](Cc1ccccc1)C(=O)N[C@H](C(=O)NC(C)(C)C(=O)N[C@@H](Cc1c[nH]c2ccccc12)C(=O)N[C@@H](CC(C)C)C(=O)N[C@@H](CCC(=O)O)C(=O)N[C@@H](CC(=O)O)C(=O)N[C@@H](CCC(=O)O)C(=O)N[C@@H](CO)C(=O)NCC(=O)N[C@@H](C)C(=O)N1CCC[C@H]1C(=O)N1CCC[C@H]1C(=O)N1CCC[C@H]1C(=O)N[C@@H](CO)C(=O)O)C(C)C) [Compound A13] | 12.3 pEC50 | < 9 pEC50
YSHGTFTSDYSKYLD[Aib]KRAQEFV[Aib]WLEDEEPSSGAPPPS-OH (N-terminus assumed; SMILES CC(C)C[C@H](NC(=O)[C@H](Cc1ccc(O)cc1)NC(=O)[C@H](CCCCN)NC(=O)[C@H](CO)NC(=O)[C@H](Cc1ccc(O)cc1)NC(=O)[C@H](CC(=O)O)NC(=O)[C@H](CO)NC(=O)[C@@H](NC(=O)[C@H](Cc1ccccc1)NC(=O)[C@@H](NC(=O)CNC(=O)[C@H](Cc1c[nH]cn1)NC(=O)[C@H](CO)NC(=O)[C@@H](N)Cc1ccc(O)cc1)[C@@H](C)O)[C@@H](C)O)C(=O)N[C@@H](CC(=O)O)C(=O)NC(C)(C)C(=O)N[C@@H](CCCCN)C(=O)N[C@@H](CCCNC(=N)N)C(=O)N[C@@H](C)C(=O)N[C@@H](CCC(N)=O)C(=O)N[C@@H](CCC(=O)O)C(=O)N[C@@H](Cc1ccccc1)C(=O)N[C@H](C(=O)NC(C)(C)C(=O)N[C@@H](Cc1c[nH]c2ccccc12)C(=O)N[C@@H](CC(C)C)C(=O)N[C@@H](CCC(=O)O)C(=O)N[C@@H](CC(=O)O)C(=O)N[C@@H](CCC(=O)O)C(=O)N[C@@H](CCC(=O)O)C(=O)N1CCC[C@H]1C(=O)N[C@@H](CO)C(=O)N[C@@H](CO)C(=O)NCC(=O)N[C@@H](C)C(=O)N1CCC[C@H]1C(=O)N1CCC[C@H]1C(=O)N1CCC[C@H]1C(=O)N[C@@H](CO)C(=O)O)C(C)C) [Compound A10] | 11.3 pEC50 | < 9 pEC50
YSHGTFTSDYSKYLD[Aib]KRAQEFV[Aib]WLEDEGAPPPS-OH (N-terminus assumed; SMILES CC(C)C[C@H](NC(=O)[C@H](Cc1ccc(O)cc1)NC(=O)[C@H](CCCCN)NC(=O)[C@H](CO)NC(=O)[C@H](Cc1ccc(O)cc1)NC(=O)[C@H](CC(=O)O)NC(=O)[C@H](CO)NC(=O)[C@@H](NC(=O)[C@H](Cc1ccccc1)NC(=O)[C@@H](NC(=O)CNC(=O)[C@H](Cc1c[nH]cn1)NC(=O)[C@H](CO)NC(=O)[C@@H](N)Cc1ccc(O)cc1)[C@@H](C)O)[C@@H](C)O)C(=O)N[C@@H](CC(=O)O)C(=O)NC(C)(C)C(=O)N[C@@H](CCCCN)C(=O)N[C@@H](CCCNC(=N)N)C(=O)N[C@@H](C)C(=O)N[C@@H](CCC(N)=O)C(=O)N[C@@H](CCC(=O)O)C(=O)N[C@@H](Cc1ccccc1)C(=O)N[C@H](C(=O)NC(C)(C)C(=O)N[C@@H](Cc1c[nH]c2ccccc12)C(=O)N[C@@H](CC(C)C)C(=O)N[C@@H](CCC(=O)O)C(=O)N[C@@H](CC(=O)O)C(=O)N[C@@H](CCC(=O)O)C(=O)NCC(=O)N[C@@H](C)C(=O)N1CCC[C@H]1C(=O)N1CCC[C@H]1C(=O)N1CCC[C@H]1C(=O)N[C@@H](CO)C(=O)O)C(C)C) [Compound A12] | 13.2 pEC50 | < 9 pEC50
YSHGTFTSDYSKYLD[Aib]KRAQEFV[Aib]WLEDEEEPSSGAPPPS-OH (N-terminus assumed; SMILES CC(C)C[C@H](NC(=O)[C@H](Cc1ccc(O)cc1)NC(=O)[C@H](CCCCN)NC(=O)[C@H](CO)NC(=O)[C@H](Cc1ccc(O)cc1)NC(=O)[C@H](CC(=O)O)NC(=O)[C@H](CO)NC(=O)[C@@H](NC(=O)[C@H](Cc1ccccc1)NC(=O)[C@@H](NC(=O)CNC(=O)[C@H](Cc1c[nH]cn1)NC(=O)[C@H](CO)NC(=O)[C@@H](N)Cc1ccc(O)cc1)[C@@H](C)O)[C@@H](C)O)C(=O)N[C@@H](CC(=O)O)C(=O)NC(C)(C)C(=O)N[C@@H](CCCCN)C(=O)N[C@@H](CCCNC(=N)N)C(=O)N[C@@H](C)C(=O)N[C@@H](CCC(N)=O)C(=O)N[C@@H](CCC(=O)O)C(=O)N[C@@H](Cc1ccccc1)C(=O)N[C@H](C(=O)NC(C)(C)C(=O)N[C@@H](Cc1c[nH]c2ccccc12)C(=O)N[C@@H](CC(C)C)C(=O)N[C@@H](CCC(=O)O)C(=O)N[C@@H](CC(=O)O)C(=O)N[C@@H](CCC(=O)O)C(=O)N[C@@H](CCC(=O)O)C(=O)N[C@@H](CCC(=O)O)C(=O)N1CCC[C@H]1C(=O)N[C@@H](CO)C(=O)N[C@@H](CO)C(=O)NCC(=O)N[C@@H](C)C(=O)N1CCC[C@H]1C(=O)N1CCC[C@H]1C(=O)N1CCC[C@H]1C(=O)N[C@@H](CO)C(=O)O)C(C)C) [Compound A11] | 11.2 pEC50 | < 9 pEC50
YSHGTFTSDYSKYLD[Aib]KRAQEFV[Aib]WLEDEPSSGAPPPS-NH2 (N-terminus assumed; SMILES CC(C)C[C@H](NC(=O)[C@H](Cc1ccc(O)cc1)NC(=O)[C@H](CCCCN)NC(=O)[C@H](CO)NC(=O)[C@H](Cc1ccc(O)cc1)NC(=O)[C@H](CC(=O)O)NC(=O)[C@H](CO)NC(=O)[C@@H](NC(=O)[C@H](Cc1ccccc1)NC(=O)[C@@H](NC(=O)CNC(=O)[C@H](Cc1c[nH]cn1)NC(=O)[C@H](CO)NC(=O)[C@@H](N)Cc1ccc(O)cc1)[C@@H](C)O)[C@@H](C)O)C(=O)N[C@@H](CC(=O)O)C(=O)NC(C)(C)C(=O)N[C@@H](CCCCN)C(=O)N[C@@H](CCCNC(=N)N)C(=O)N[C@@H](C)C(=O)N[C@@H](CCC(N)=O)C(=O)N[C@@H](CCC(=O)O)C(=O)N[C@@H](Cc1ccccc1)C(=O)N[C@H](C(=O)NC(C)(C)C(=O)N[C@@H](Cc1c[nH]c2ccccc12)C(=O)N[C@@H](CC(C)C)C(=O)N[C@@H](CCC(=O)O)C(=O)N[C@@H](CC(=O)O)C(=O)N[C@@H](CCC(=O)O)C(=O)N1CCC[C@H]1C(=O)N[C@@H](CO)C(=O)N[C@@H](CO)C(=O)NCC(=O)N[C@@H](C)C(=O)N1CCC[C@H]1C(=O)N1CCC[C@H]1C(=O)N1CCC[C@H]1C(=O)N[C@@H](CO)C(N)=O)C(C)C) [Compound A8] | 12.3 pEC50 | < 9 pEC50
YSHGTFTSDYSKYLD[Aib]ARAQEFV[Aib]WLEDEPSSGAPPPS-OH (N-terminus assumed; SMILES CC(C)C[C@H](NC(=O)[C@H](Cc1ccc(O)cc1)NC(=O)[C@H](CCCCN)NC(=O)[C@H](CO)NC(=O)[C@H](Cc1ccc(O)cc1)NC(=O)[C@H](CC(=O)O)NC(=O)[C@H](CO)NC(=O)[C@@H](NC(=O)[C@H](Cc1ccccc1)NC(=O)[C@@H](NC(=O)CNC(=O)[C@H](Cc1c[nH]cn1)NC(=O)[C@H](CO)NC(=O)[C@@H](N)Cc1ccc(O)cc1)[C@@H](C)O)[C@@H](C)O)C(=O)N[C@@H](CC(=O)O)C(=O)NC(C)(C)C(=O)N[C@@H](C)C(=O)N[C@@H](CCCNC(=N)N)C(=O)N[C@@H](C)C(=O)N[C@@H](CCC(N)=O)C(=O)N[C@@H](CCC(=O)O)C(=O)N[C@@H](Cc1ccccc1)C(=O)N[C@H](C(=O)NC(C)(C)C(=O)N[C@@H](Cc1c[nH]c2ccccc12)C(=O)N[C@@H](CC(C)C)C(=O)N[C@@H](CCC(=O)O)C(=O)N[C@@H](CC(=O)O)C(=O)N[C@@H](CCC(=O)O)C(=O)N1CCC[C@H]1C(=O)N[C@@H](CO)C(=O)N[C@@H](CO)C(=O)NCC(=O)N[C@@H](C)C(=O)N1CCC[C@H]1C(=O)N1CCC[C@H]1C(=O)N1CCC[C@H]1C(=O)N[C@@H](CO)C(=O)O)C(C)C) [Compound A7] | 11.9 pEC50 | < 9 pEC50
